Experimental data as given in patent publication US12297272B2, “IgG Fc variants for veterinary use” (Elanco US Inc., priority 2017, dated 2025).
Substitutions are numbered along the chain they refer to.

Assays:
[1] = Differential scanning fluorimetry, stability at various pH; format: physicochemical; conditions: n = 3, 10 μg construct
Excerpt: Furthermore, differential scanning fluorimetry was used to assess the stability of the contiguous polypeptides at various pH, as reflected by mean melting point temperature (n=3) (Table 9, below). The increased stability of the variant feline IgG2 hinge is most evident at pH 6.

[2] = molecular target: Protein A (Staphylococcus aureus, UniProt P38507); conditions: for Protein A Binding: Wild-type Canine IgG Fc
Experimental: In some embodiments, the KD of an IgG Fc polypeptide, such as a variant IgG Fc polypeptide, to Protein A or to C1q or to CD16 is measured by using biolayer interferometry assays using a biosensor, such as an Octet® System (Pall ForteBio LLC, Fremont, CA) according to the supplier's instructions. In brief, biotinylated Protein A or C1q or CD16 is bound to the sensor tip and the association of IgG Fc polypeptide is monitored for a specified time or until steady state is reached. Dissociation may be monitored for a specified time or until steady state is reached. A buffer only blank curve is subtracted to correct for any drift. The data are fit to a 2:1 binding model using ForteBio data analysis software to determine association rate constant (kon), dissociation rate constant (koff), and the Kd. The equilibrium dissociation constant (KD) is calculated as the ratio of koff/kon. The term “kon” refers to the rate constant for association of a molecule X to its partner Y and the term “koff” refers to the rate constant for dissociation of a molecule X or partner Y from the molecule X/partner Y complex.
Binding analysis may be performed using an Octet biosensor. Briefly, the target molecule (e.g., Protein A, C1q, CD16, etc.) may be biotinylated and free unreacted biotin removed (e.g., by dialysis). The biotinylated target molecule is captured on streptavidin sensor tips. Association of the target molecule with various concentrations (e.g., 10 μg/mL) of IgG Fc polypeptide is monitored for a specified time or until steady state is reached. Dissociation is monitored for a specified time or until steady state is reached. A buffer only blank curve may be subtracted to correct for any drift. The data are fit to a 1:1 binding model using ForteBio™ data analysis software to determine the kon, koff, and the Kd.

[3] = molecular target: T1, C1q (Homo sapiens, UniProt P02745+P02746+P02747); experiment: C1q binding of IgG Fc polypeptides (Octet biolayer interferometry described); conditions: for C1q Binding: Wild-type Canine IgG Fc; for C1q binding: key: (−) denotes low or no measurable binding activity
Excerpt: (§1) Binding analysis may be performed using an Octet biosensor.

[4] = molecular target: CD16 (Homo sapiens, UniProt P08637); experiment: CD16 binding of IgG Fc polypeptides (Octet biolayer interferometry described); conditions: for CD16 Binding: Wild-type Canine IgG Fc
Excerpt: as §1

[5] = molecular target: T1, C1q; experiment: Binding between human C1q and canine IgG-B Fc fusion protein; conditions: compared to a fusion protein comprising wild-type canine IgG-B Fc
Excerpt: as §1

T1 sequence (P02745 23-245): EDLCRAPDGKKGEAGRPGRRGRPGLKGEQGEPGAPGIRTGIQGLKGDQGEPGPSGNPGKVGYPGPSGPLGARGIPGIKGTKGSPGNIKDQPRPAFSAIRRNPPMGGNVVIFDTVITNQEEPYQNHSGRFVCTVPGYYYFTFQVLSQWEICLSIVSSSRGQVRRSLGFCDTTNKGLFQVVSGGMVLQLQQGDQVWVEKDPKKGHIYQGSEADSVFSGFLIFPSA
T1 sequence (P02746 28-253): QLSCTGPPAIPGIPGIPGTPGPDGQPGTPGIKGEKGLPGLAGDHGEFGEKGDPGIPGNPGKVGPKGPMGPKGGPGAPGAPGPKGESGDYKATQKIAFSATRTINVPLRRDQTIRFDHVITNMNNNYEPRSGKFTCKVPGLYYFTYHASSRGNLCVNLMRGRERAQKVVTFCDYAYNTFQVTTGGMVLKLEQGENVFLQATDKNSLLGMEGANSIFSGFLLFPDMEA
T1 sequence (P02747 29-245): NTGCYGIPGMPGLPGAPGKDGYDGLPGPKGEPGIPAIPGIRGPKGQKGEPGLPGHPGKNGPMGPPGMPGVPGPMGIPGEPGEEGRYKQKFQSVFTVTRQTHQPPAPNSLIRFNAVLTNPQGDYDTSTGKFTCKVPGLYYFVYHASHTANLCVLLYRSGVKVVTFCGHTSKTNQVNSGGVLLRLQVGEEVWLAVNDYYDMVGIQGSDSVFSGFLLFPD
CD16, sequence (P08637 17-254): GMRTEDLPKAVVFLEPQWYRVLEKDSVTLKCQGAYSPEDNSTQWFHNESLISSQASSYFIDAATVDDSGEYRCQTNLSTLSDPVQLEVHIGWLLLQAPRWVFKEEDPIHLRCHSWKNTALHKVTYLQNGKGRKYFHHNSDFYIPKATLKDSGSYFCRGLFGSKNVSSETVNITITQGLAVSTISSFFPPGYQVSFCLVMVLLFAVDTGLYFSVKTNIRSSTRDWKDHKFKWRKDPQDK

B1: GLP1-G8_I_WTfeIgG2: Formula I contiguous polypeptide: GLP1-G8 (7-35), flexible linker, wildtype feline IgG2 Fc (protein)
chain: HGEGTFTSDVSSYLEGQAAKEFIAWLVKGGGGSGGGGSGGGGSGGGGSPKTASTIESKTGEGPKCPVPEIPGAPSVFIFPPKPKDTLSISRTPEVTCLVVDLGPDDSNVQITWFVDNTEMHTAKTRPREEQFNSTYRVVSVLPILHQDWLKGKEFKCKVNSKSLPSAMERTISKAKGQPHEPQVYVLPPTQEELSENKVSVTCLIKGFHPPDIAVEWEITGQPEPENNYQTTPPQLDSDGTYFLYSRLSVDRSHWQRGNTYTCSVSHEALHSHHTQKSLTQSPGK
modifications: Synthetic GLP1-G8_I_WTfeIgG2
notes: Formula I contiguous polypeptide: GLP1-G8 (7-35), flexible linker, wildtype feline IgG2 Fc
- Mean Melting Point Temperature (Tm) ([1]; pH 5): 48.5 °C
- Mean Melting Point Temperature (Tm) ([1]; pH 6): 56.9 °C
- Mean Melting Point Temperature (Tm) ([1]; pH 7): 59.9 °C
- Mean Melting Point Temperature (Tm) ([1]; pH 8): 59 °C

B2: canine IgG-A Fc: wild-type canine IgG-A Fc polypeptide (protein)
chain: PVPEPLGGPSVLIFPPKPKDILRITRTPEVTCVVLDLGREDPEVQISWFVDGKEVHTAKTQSREQQFNGTYRVVSVLPIEHQDWLTGKEFKCRVNHIDLPSPIERTISKARGRAHKPSVYVLPPSPKELSSSDTVSITCLIKDFYPPDIDVEWQSNGQQEPERKHRMTPPQLDEDGSYFLYSKLSVDKSRWQQGDPFTCAVMHETLQNHYTDLSLSHSPGK
modifications: Wild-type canine IgG-A Fc , Protein A -, C1q -, CD16
notes: wild-type canine IgG-A Fc polypeptide
- Protein A binding affinity [2]: weak or no measurable Protein A binding affinity
- Protein A Binding [2]: −
- binding affinity to C1q [3]: weak or no measurable binding affinity to C1q
- C1q Binding [3]: −
- CD16 Binding [4]: −

B3: GLP1-G8/GLP1-2G_III_WTfeIgG2: Formula III contiguous polypeptide: GLP1-G8 (7-35), GLP1 (7-35), two flexible linkers, 2G C-terminal extension, wildtype feline IgG2 Fc (protein)
chain: HGEGTFTSDVSSYLEGQAAKEFIAWLVKGGGGSGGGGSGGGGSGGGGSPKTASTIESKTGEGPKCPVPEIPGAPSVFIFPPKPKDTLSISRTPEVTCLVVDLGPDDSNVQITWFVDNTEMHTAKTRPREEQFNSTYRVVSVLPILHQDWLKGKEFKCKVNSKSLPSAMERTISKAKGQPHEPQVYVLPPTQEELSENKVSVTCLIKGFHPPDIAVEWEITGQPEPENNYQTTPPQLDSDGTYFLYSRLSVDRSHWQRGNTYTCSVSHEALHSHHTQKSLTQSPGKGGGGSGGGGHAEGTFTSDVSSYLEGQAAKEFIAWLVKGGG
modifications: Synthetic GLP1-G8/GLP-2G_III_ WTfeIgG2
notes: Formula III contiguous polypeptide: GLP1-G8 (7-35), GLP1 (7-35), two flexible linkers, 2G C-terminal extension, wildtype feline IgG2 Fc
- Mean Melting Point Temperature (Tm) ([1]; pH 6): 55.2 °C
- Mean Melting Point Temperature (Tm) ([1]; pH 7): 55.7 °C
- Mean Melting Point Temperature (Tm) ([1]; pH 8): 54.2 °C

B4: canine IgG-B Fc: wild-type canine IgG-B Fc polypeptide (protein)
chain: PAPEMLGGPSVFIFPPKPKDTLLIARTPEVTCVVVDLDPEDPEVQISWFVDGKQMQTAKTQPREEQFNGTYRVVSVLPIGHQDWLKGKQFTCKVNNKALPSPIERTISKARGQAHQPSVYVLPPSREELSKNTVSLTCLIKDFFPPDIDVEWQSNGQQEPESKYRTTPPQLDEDGSYFLYSKLSVDKSRWQRGDTFICAVMHEALHNHYTQESLSHSPGK
modifications: Wild-type canine IgG-B Fc , Protein A +, C1q +, CD16 +
notes: wild-type canine IgG-B Fc polypeptide
- Protein A binding affinity [2]: has Protein A binding affinity
- binding affinity to C1q [3]: bind to C1q
- CD16 binding activity [4]: have CD16 binding activity

B5: fusion protein comprising variant canine IgG-B Fc K(93)R: fusion protein comprising variant canine IgG-B Fc K(93)R (SEQ ID NO: 78); fusion partner not stated (protein)
chain: B4 chain with K93R
modifications: left off: a dimerising Fc or GST
- binding to human C1q [5]: Reduced binding

B6: canine IgG-C Fc: wild-type canine IgG-C Fc polypeptide (protein)
chain: PGCGLLGGPSVFIFPPKPKDILVTARTPTVTCVVVDLDPENPEVQISWFVDSKQVQTANTQPREEQSNGTYRVVSVLPIGHQDWLSGKQFKCKVNNKALPSPIEEIISKTPGQAHQPNVYVLPPSRDEMSKNTVTLTCLVKDFFPPEIDVEWQSNGQQEPESKYRMTPPQLDEDGSYFLYSKLSVDKSRWQRGDTFICAVMHEALHNHYTQISLSHSPGK
modifications: Wild-type canine IgG-C Fc , Protein A - , C1q +, CD16 +
notes: wild-type canine IgG-C Fc polypeptide
- Protein A binding affinity [2]: weak or no measurable Protein A binding affinity
- Protein A Binding [2]: −
- binding affinity to C1q [3]: bind to C1q
- CD16 binding activity [4]: have CD16 binding activity

B7: canine IgG-D Fc: wild-type canine IgG-D Fc polypeptide (protein)
chain: PVPESLGGPSVFIFPPKPKDILRITRTPEITCVVLDLGREDPEVQISWFVDGKEVHTAKTQPREQQFNSTYRVVSVLPIEHQDWLTGKEFKCRVNHIGLPSPIERTISKARGQAHQPSVYVLPPSPKELSSSDTVTLTCLIKDFFPPEIDVEWQSNGQPEPESKYHTTAPQLDEDGSYFLYSKLSVDKSRWQQGDTFTCAVMHEALQNHYTDLSLSHSPGK
modifications: Wild-type canine IgG-D Fc , Protein A -, C1q -, CD16
notes: wild-type canine IgG-D Fc polypeptide
- Protein A binding affinity [2]: weak or no measurable Protein A binding affinity
- Protein A Binding [2]: −
- binding affinity to C1q [3]: weak or no measurable binding affinity to C1q
- C1q Binding [3]: −
- CD16 Binding [4]: −
